Data published in PMC6508567 (2018).

B1: serpin Z4 (natural protein)
chain: MATTLATDVRLSIAHQTRFALRLRSAISSNPERAAGNVAFSPLSLHVALSLITAGAAATRDQLVAILGDGGAGDAKELNALAEQVVQFVLANESSTGGPRIAFANGIFVDASLSLKPSFEELAVCQYKAKTQSVDFQHKTLEAVGQVNSWVEQVTTGLIKQILPPGSVDNTTKLILGNALYFKGAWDQKFDESNTKCDSFHLLDGSSIQTQFMSSTKKQYISSSDNLKVLKLPYAKGHDKRQFSMYILLPGAQDGLWSLAKRLSTEPEFIENHIPKQTVEVGRFQLPKFKISYQFEASSLLRALGLQLPFSEEADLSEMVDSSQGLEISHVFHKSFVEVNEEGTEAGAATVAMGVAMSMPLKVDLVDFVANHPFLFLIREDIAGVVVFVGHVTNPLISA
B2: β-amylase WT (enzyme)
chain: MEVNVKGNYVQVYVMLPLDAVSVNNRFEKGDELRAQLRKLVEAGVDGVMVDVWWGLVEGKGPKAYDWSAYKQLFELVQKAGLKLQAIMSFHQCGGNVGDAVNIPIPQWVRDVGTCDPDIFYTDGHGTRNIEYLTLGVDNQPLFHGRSAVQMYADYMTSFRENMKEFLDAGVIVDIEVGLGPAGEMRYPSYPQSHGWSFPGIGEFICYDKYLQADFKAAAAAVGHPEWEFPNDVGQYNDTPERTQFFRDNGTYLSEKGRFFLAWYSNNLIKHGDRILDEANKVFLGYKVQLAIKISGIHWWYKVPSHAAELTAGYYNLHDRDGYRTIARMLKRHRASINFTCAEMRDSEQSSQAMSAPEELVQQVLSAGWREGLNVACENALPRYDPTAYNTILRNARPHGINQSGPPEHKLFGFTYLRLSNQLVEGQNYANFKTFVDRMHANLPRDPYVDPMAPLPRSGPEISIEMILQAAQPKLQPFPFQEHTDLPVGPTGGMGGQAEGPTCGMGGQVKGPTGGMGGQAEDPTSGIGGELPATM

Tests used:
β-amylase WT [1] = biological target: B2; assay: SPR; β-amylase immobilised
β-amylase WT [2] = biological target: B2; assay: MST; β-amylase labelled, serpin Z4 titrated
serpin Z4 = biological target: B1; assay: SPR; serpin Z4 immobilised

Binder | koff (β-amylase WT [1]) [s⁻¹] | Kd (β-amylase WT [2]) [nM] | koff (serpin Z4) [s⁻¹]
B1 | 0.00263 | 215 | 
B2 |  |  | 0.00243
